Data published in patent publication US20150080549A1 (Chugai, published 2015).
Starred links: 1 amine or outer side, 2 acyl side, 3 side chain; linkers in the order of their positions; H or OH if unused. Positions of bridges follow the written chain, without caps; N, C: chain ends. Non-standard residues stand in square brackets, D forms with d. γEtAbu = 4-(ethylamino)butanoic acid, CCN(CCCC(=O)[*:2])[*:1]; NMeAla(4-thiazolyl) = CN[C@@H](Cc1cscn1)C(=O)O; NMePhe(3-Cl) = CN[C@@H](Cc1cccc(Cl)c1)C(=O)O; Met(O2) = CS(=O)(=O)CC[C@H](N)C(=O)O; NMeF = CN[C@@H](Cc1ccccc1)C(=O)O; FlPu(urea) = not defined here; Phg = N[C@H](C(=O)O)c1ccccc1; NMeS = CN[C@@H](CO)C(=O)O; NMeA = CN[C@@H](C)C(=O)O; βAla = NCCC(=O)O; Sar = CNCC(=O)O

T1: biotinylated Recombinant Human TNFR1/Fc Chimera (SinoBiological, Catalog Number 10872-H03H) (human, UniProt P19438 22-211, biotinylated with EZ-Link NHS-PEG4-Biotin (Thermo scientific 21329); sites not stated)
T1 construct: Bought Fc chimera; also called tumor necrosis factor receptor 1; Fc part of the bought chimera not given
T1 sequence (looked up): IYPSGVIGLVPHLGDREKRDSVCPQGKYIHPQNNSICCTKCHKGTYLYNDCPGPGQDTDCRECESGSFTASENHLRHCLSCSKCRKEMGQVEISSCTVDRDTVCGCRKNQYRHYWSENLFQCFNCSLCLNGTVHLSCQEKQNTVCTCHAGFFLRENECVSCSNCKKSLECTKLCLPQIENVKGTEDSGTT

T2: biotinylated Interleukin-6 receptor (IL-6R) (human, UniProt P08887 20-344, limits assumed, biotinylated (method of BMC biotechnology, 2008, 8, 41 and Protein Science, 1999, 8, 921-929); site not stated)
T2 construct: also called human IL-6 receptor; hIL-6R
T2 sequence (looked up): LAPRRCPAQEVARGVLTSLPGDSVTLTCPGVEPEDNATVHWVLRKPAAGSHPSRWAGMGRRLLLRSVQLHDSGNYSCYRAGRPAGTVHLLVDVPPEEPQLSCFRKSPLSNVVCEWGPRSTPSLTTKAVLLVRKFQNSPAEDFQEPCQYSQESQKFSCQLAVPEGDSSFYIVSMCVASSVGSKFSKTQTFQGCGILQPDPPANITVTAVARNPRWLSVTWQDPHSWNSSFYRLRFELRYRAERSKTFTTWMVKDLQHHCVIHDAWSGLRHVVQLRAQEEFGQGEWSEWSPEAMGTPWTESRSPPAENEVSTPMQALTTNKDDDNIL

B1: SEQ ID NO: PE-5 (TNFR1 binder) peptide (peptide)
peptide: AP[Sar]IIVS[NMeS][Phg][Phg]D[NMeAla(4-thiazolyl)]TSGSGSGS-{FlPu(urea)}
modifications: lactam N-11; reading uncertain
notes: Translated in ECL Translation Solution T, cyclized and desulfurized; not isolated; also called translation product of template DNA DME-5
B2: SEQ ID NO: PE-6 (TNFR1 binder) peptide (peptide)
peptide: AP[Sar]VITV[NMeS][Phg]SD[NMeA][NMePhe(3-Cl)]SGSGSGS-{FlPu(urea)}
modifications: lactam N-11; reading uncertain
notes: Translated in ECL Translation Solution T, cyclized and desulfurized; not isolated; also called translation product of template DNA DME-6
B3: SEQ ID NO: PE-4 (TNFR1 binder) peptide (peptide)
peptide: A[dY]IW[Met(O2)]S[Met(O2)][NMePhe(3-Cl)]V[NMeF]DT[NMePhe(3-Cl)]SGSGSGS-{FlPu(urea)}
modifications: lactam N-11; reading uncertain
notes: Translated in ECL Translation Solution T, cyclized and desulfurized; not isolated; also called translation product of template DNA DME-4
B4: Compound SP854 (peptide)
peptide: APVI[NMeF][Met(O2)]P[NMePhe(3-Cl)]V[Met(O2)]DP[Sar]S-OH
modifications: lactam N-11
SMILES: CC[C@H](C)[C@@H]1NC(=O)[C@H](C(C)C)NC(=O)[C@@H]2CCCN2C(=O)[C@H](C)NC(=O)C[C@@H](C(=O)N2CCC[C@H]2C(=O)N(C)CC(=O)N[C@@H](CO)C(=O)O)NC(=O)[C@H](CCS(C)(=O)=O)NC(=O)[C@H](C(C)C)NC(=O)[C@H](Cc2cccc(Cl)c2)N(C)C(=O)[C@@H]2CCCN2C(=O)[C@H](CCS(C)(=O)=O)NC(=O)[C@H](Cc2ccccc2)N(C)C1=O
notes: Chemically synthesized, HPLC purified
B5: Compound SP855 (peptide)
peptide: AII[NMeAla(4-thiazolyl)]WP[NMePhe(3-Cl)][Met(O2)][dY][βAla]DP[NMePhe(3-Cl)]S-OH
modifications: lactam N-11
SMILES: CC[C@H](C)[C@@H]1NC(=O)[C@H](C)NC(=O)C[C@@H](C(=O)N2CCC[C@H]2C(=O)N(C)[C@@H](Cc2cccc(Cl)c2)C(=O)N[C@@H](CO)C(=O)O)NC(=O)CCNC(=O)[C@@H](Cc2ccc(O)cc2)NC(=O)[C@H](CCS(C)(=O)=O)NC(=O)[C@H](Cc2cccc(Cl)c2)N(C)C(=O)[C@@H]2CCCN2C(=O)[C@H](Cc2c[nH]c3ccccc23)NC(=O)[C@H](Cc2cscn2)N(C)C(=O)[C@H]([C@@H](C)CC)NC1=O
notes: as for B4
B6: Compound SP859 (peptide)
peptide: APVI[NMeF][Met(O2)]P[NMePhe(3-Cl)]V[Met(O2)]DP[Sar]S-{NH(CH2)2NMe2}
modifications: lactam N-11
notes: Made from Compound SP854 by amidation of the C-terminal carboxylic acid
B7: Compound SP856 (peptide)
peptide: [γEtAbu]IVW[NMePhe(3-Cl)][Met(O2)]P[NMePhe(3-Cl)][dY][Met(O2)]D[NMeAla(4-thiazolyl)][NMeA]S-OH
modifications: lactam N-11
SMILES: CC[C@H](C)[C@@H]1NC(=O)CCCN(CC)C(=O)C[C@@H](C(=O)N(C)[C@@H](Cc2cscn2)C(=O)N(C)[C@@H](C)C(=O)N[C@@H](CO)C(=O)O)NC(=O)[C@H](CCS(C)(=O)=O)NC(=O)[C@@H](Cc2ccc(O)cc2)NC(=O)[C@H](Cc2cccc(Cl)c2)N(C)C(=O)[C@@H]2CCCN2C(=O)[C@H](CCS(C)(=O)=O)NC(=O)[C@H](Cc2cccc(Cl)c2)N(C)C(=O)[C@H](Cc2c[nH]c3ccccc23)NC(=O)[C@H](C(C)C)NC1=O
notes: as for B4

molecular target: T1, biotinylated Recombinant Human TNFR1/Fc …; assay: ECL immunoassay (MSD): biotinylated target on streptavidin plate, translated FlPu(urea)-labelled cyclic peptide (Translation Solution T), anti-fluorescein and SULFO-TAG anti-mouse antibody; no-template control 293
Description: 0.5 μl of a 200 mM EDTA solution (pH 8.0, Nacalai, 14362-24) and 0.5 μl of a 100 mM TCEP solution (pH 6.6) were added to 5 μL of the translation mixture, and the mixture was incubated at 37° C. for 120 minutes to cause cyclization reaction. 11 μL of desulfurization buffer (15 mM cysteine, 36 mM TCEP) was added to the cyclization product, and the mixture was incubated at 42° C. for 1 minutes, after which 4 μL of 1 M VA-044 (Wako, CAS No. 27776-21-2) was added and the mixture was allowed to stand at 42° C. for 1 hour.
Immunoassay was carried out using the above peptide solution for ECL assay. 500 nM biotinylated target protein was added at 10 μL per well to MSD Streptavidin MULTI-ARRAY 384-well plate (Meso Scale Discovery, L25SB-1), and reaction was conducted at room temperature for 1 hour with shaking at 500 rpm to immobilize the target protein. 2% skim milk PBS was added at 50 μL per well, and blocking was carried out by allowing to stand at room temperature for 2 hours. The reaction solution was removed and the plate was washed with PBS containing 0.05% Tween 20 (PBST) three times, after which 10 μL of the peptide solution for ECL assay was added and the plate was shaken at room temperature for 50 minutes at 500 rpm. The reaction solution was removed and the plate was washed with PBST three times, after which 10 μL of IgG Fraction Monoclonal Mouse Anti-Fluorescein (Jackson ImmunoResearch, 200-002-037) diluted to 0.5 μg/mL with 2% skim milk PBS was added, and reaction was conducted at room temperature for 50 minutes with shaking at 500 rpm. […] The reaction solution was removed and the plate was washed with PBST three times, after which 35 μl, of 2× Read Buffer T (Meso Scale Discovery, R92TC-3) was added and measurement was carried out using SECTOR Imager 2400 (Meso Scale Discovery).

Binder	ECL signal
B1	3760
B2	3610
B3	32000

molecular target: T2, biotinylated Interleukin-6 receptor …; assay: SPR, Biacore T200, 20 C; biotinylated IL-6R captured on sensor chip CAP, peptide as analyte; KD=koff/kon from curve fitting
Description: An SPR experiment for analyzing the interaction between synthetic peptides and IL-6R was conducted using Biacore T200 (GE healthcare) at 20° C. Synthetic peptides were added to the immobilized IL-6R, and the interaction was evaluated.
CAP reagent was immobilized on a Biacore sensor chip, Series S sensor chip CAP (GE healthcare), according to the instructions, and biotinylated IL-6R was further immobilized.
The obtained sensorgrams were analyzed using T200 evaluation software (GE healthcare) or Scrubber2 (Biologic software). First, solvent correction for DMSO and double reference (correction by subtracting sensorgrams of flow cells where IL-6R was not immobilized and sensorgrams in the case where the buffer was added) were carried out. Second, binding rate constants (kₒₙ) and dissociation rate constants (koff) were calculated from curve fitting to the corrected sensorgrams, and KDs were determined by the relational expression KD=koff/kₒₙ.

Kd [µM]	Binder
1.8	B4
5.3	B5
0.55	B6
13	B7
